The source of these data is patent publication US11638741B2, “Composition for treating cancer or inhibiting cancer metastasis, including TFG or TFMG nanoparticles” (KYUNGPOOK NATIONAL UNIVERSITY INDUSTRY-ACADEMIC COOPERATION …, priority 2019, dated 2023).

Test [1] relates to Lewis lung carcinoma (LLC). Kind of test: Enhancement of cisplatin treatment effects in LLC allograft model (tumor size, survival). The test is classed as in vivo, C57BL/6J mice. The following applies: for inhibiting the growth of the tumor: nanoparticles 100 nM (days 7, 10, 13) administered together with cisplatin 3 mg/kg (days 7, 12), on day 13. On the procedure:
In order to confirm whether the treatment effects of a conventionally used anticancer agent may be enhanced by normalizing abnormal blood vessels in a tumor, 100 nM of the TFG nanoparticles or TFMG nanoparticles was injected into the tail vein in a tumor animal model prepared in the same manner as in Example 2.1 on days 7, 10, and 13, cisplatin was injected at a concentration of 3 mg/kg on days 7 and 12, and the survival proportion was measured. An equal amount of phosphate buffered saline was injected into a negative control (Con), and an equal amount of cisplatin was injected alone into a positive control (Cis). Then, the tumor size was confirmed by obtaining tumors on days 9, 11, and 13. The results are illustrated in FIGS. 8 and 9.

The test system of test [2] is Lewis lung carcinoma (LLC). Kind of test: Inhibition of tumor metastasis into lungs and inguinal lymph nodes, LLC allograft model after tumor removal surgery. The test is classed as in vivo, C57BL/6J mice. The conditions noted are these: compared with the control; for lymph node metastasis inhibition rate: inguinal lymph nodes, IHC, day 28; for metastasis of the tumor into the lungs inhibited: tumor removal surgery day 14, metastasis confirmed day 28. The procedure:
In order to confirm whether the TFG nanoparticles or TFMG nanoparticles affected the inhibition of metastasis of tumor, a tumor animal model was prepared in the same manner as in Example 2.1, and then the TFG nanoparticles or TFMG nanoparticles were injected. Then, a tumor removal surgery was performed on day 14, and it was confirmed whether the tumor metastasized into the lungs and the inguinal lymph nodes (LNs) on day 28. The metastasis into the inguinal lymph nodes was confirmed using immunohistochemistry (IHC) analyses. More specifically, the lymph nodes obtained to confirm cytokeratin positive tumor cells were fixed with 3.7% paraformaldehyde (PFA), and then dehydrated by treatment with a 10 to 40% sucrose solution at each step. Then, after the permeability of cells was increased by treatment with 0.3% Triton X-100 and a blocking process was performed using a bovine serum albumin (BSA), the lymph nodes were treated with rat anti-CD31 (BD Biosciences), mouse anti-α-SMA (Abcam), mouse anti-pimonidazole (HPI), mouse anti-cytokeratin II (Millipore), or rabbit anti-LYVE-1 (Angiobio) antibodies, and reacted at 4° C. for 16 hours. Then, unbound antibodies were washed using phosphate buffered saline, and then treated with Alexa Fluor 488-, 568-, or 647-conjugated anti-mouse IgG (Invitrogen), Alexa Fluor 594- or 647-conjugated anti-rat IgG (Invitrogen), Alexa Fluor 488-, 568-, or 647-conjugated anti-rabbit IgG (Invitrogen) antibodies that were secondary antibodies to a fluorescent marker, and reacted at room temperature for 1 hour. Then, finally, cellular nuclei were stained by treatment with Hoechst33258 (Invitrogen) for 1 minute, and then observed using a confocal microscope, and a fluorescence value was quantified using ImageJ. In order to show a significant difference between the corresponding groups in at least 3 of all the experimental result values, an ANOVA verification was performed, and only values with statistical significance of P-values <0.05 were shown as the average value±standard deviations (SD). The results are illustrated in FIGS. 4 to 5.

For test [3], the system named is Lewis lung carcinoma (LLC). Kind of test: Inhibition of tumor proliferation and survival in LLC allograft tumor animal model. The test is classed as in vivo, C57BL/6J mice. The following applies: 100 nM into the tail vein on days 7, 10, 13; for survival proportion: FIG. 3; for tumor growth inhibition effect: compared with the control, tumor obtained on day 14. On the procedure: In order to confirm the effects of the TFG nanoparticles or TFMG nanoparticles on the proliferation of cancer cells, after a tumor animal model was prepared by allografting 2 to 5×10^5 cells of Lewis lung carcinoma (LLC) as a murine lung cancer cell line into 6- to 7-week-old C57BL/6J mice, 100 nM of the TFG nanoparticles or TFMG nanoparticles was injected into the tail vein on days 7, 10, and 13, and then the size and survival proportion of the tumor were observed by obtaining the tumor on day 14. The tumor size was measured by substitution into the formula “0.5×A×B^2 (A: diameter in the longest direction, and B: diameter in a direction vertical to the longest direction).” An equal amount of phosphate buffered saline was administered to a control (Con). Animal care and all experimental procedures were performed in accordance with the laws and regulations for animal experiments. In order to show a significant difference between the corresponding groups in at least 3 of all the experimental result values, an ANOVA verification was performed, and only values with statistical significance of P-values <0.05 were shown as the average value±standard deviations (SD). The results are illustrated in FIGS. 1 to 3.

Test [4] relates to naturally occurring tumor model (MMTV-PyMT gene transplanted mice). Kind of test: Inhibition of tumor metastasis in naturally occurring tumor model. It is filed as in vivo. The following applies: compared to the control; 100 nM into tail veins at 12 weeks, confirmed at 15 weeks. An excerpt:
The results are illustrated in FIG. 12.

The subject of test [5] is blood vessels in a tumor (Lewis lung carcinoma (LLC)). Put plainly: Structure and function of blood vessels in LLC tumor (IHC, pimonidazole hypoxia staining). The test is classed as in vivo, C57BL/6J mice. The conditions noted are these: FIG. 7. On the procedure:
The structure and function of blood vessels in a tumor were analyzed using the tumor obtained in the same manner as in Example 2.1. More specifically, the obtained tumor was observed using a confocal microscope after fluorescent staining was performed through IHC analyses in the same manner as in Example 2.2. In order to measure the hypoxic state inside the tumor, 60 mg/kg of Hypoxyprobe-1™ (pimonidazole hydrochloride; PIMO, HPI) was administered through intraperitoneal injection, and 90 minutes later, the mouse was sacrificed and the tumor extracted. The extracted tumor was incised, and then stained with mouse anti-hypoxyprobe antibody (HPI), Alexa Fluor 488-, 568-, or 647-conjugated anti-mouse IgG (Invitrogen), and in order to measure the degree of leakage of blood vessels in the tumor, 40 mg/kg of Hoechst33258 (Invitrogen) was intravenously injected 5 minutes before the mouse was sacrificed. The prepared sample was obtained using a confocal microscope. The results are illustrated in FIGS. 6 and 7.

For test [6], the system named is naturally occurring tumor model (MMTV-PyMT gene transplanted mice). Kind of test: Inhibition of tumor proliferation in naturally occurring tumor model. The test is classed as in vivo. The following applies: 100 nM into tail veins of 12-week-old mice; tumors obtained at 15 weeks. On the procedure:
More specifically, the sizes of all the distinct nodules of 12-week-old mice were measured, and the mice were grouped according to the sizes of the tumors. Then, 100 nM of the TFG nanoparticles or TFMG nanoparticles was injected into their tail veins, and the tumors were obtained when the mice became 15 weeks old. Then, the sizes of the tumors were measured in the same manner as in Example 2.1. The results are illustrated in FIG. 11.

For the molecule `N.N.[Cl][Pt][Cl]` [cisplatin, reference compound], in test [1] (cisplatin administered alone, 3 mg/kg on days 7 and 12 (positive control)), the “growth of the tumor inhibited” value was found to be 62.6%.

B1: TFMG nanoparticles: a TRAP-ferritin monomer fragment-linker-PC-Gla fusion polypeptide; a polypeptide represented by SEQ ID NO: 2 (protein)
chain: MGGTTFLLRNASGHMSSQIRQNYSTDVEAAVNSLVNLYLQASYTYLSLGFYFDRDDVALEGVSHFFRELAEEKREGYERLLKMQNQRGGRIFLQDIKKPAEDEWGKTPDAMKAAMALEKKLNQALLDLHALGSARTDPHLCDFLETHFLDEEVKLIKKMGDHLTNLHRLGGGSEFVDGGGSGTSGPLGLAGANSFLEELRHSSLERECIEEICDFEEAKEIFQNVDDTLAFWSKHVLEHHHHHH
modifications: nanoparticle assembly; TFMG nanoparticle
Take B1: the “inhibiting the growth of the tumor” value in test [1] worked out at 94.3%. Moreover, in test [2], the “lymph node metastasis inhibition rate” value amounted to 78.1% and the “metastasis of the tumor into the lungs inhibited” value came out at 86.4%. Also, in test [3], the survival proportion result is on record as “increased” and the “tumor growth inhibition effect” value came to 27.0%. For the same molecule, in test [4], the metastasis inhibition rate was 93.6%. Moreover, the “blood vessels covered with α-smooth muscle actin positive pericytes” value in test [5] is listed as “increased”. Also, in test [6], the “number of nodules with tumors decreased” value amounted to 59% and the “sizes of the tumors decreased” value came to 87.2%.

B2: TFG nanoparticles: a TRAP-ferritin monomer fragment-PC-Gla fusion polypeptide; a polypeptide represented by SEQ ID NO: 1 (protein)
chain: MGGTTFLLRNASGHMSSQIRQNYSTDVEAAVNSLVNLYLQASYTYLSLGFYFDRDDVALEGVSHFFRELAEEKREGYERLLKMQNQRGGRIFLQDIKKPAEDEWGKTPDAMKAAMALEKKLNQALLDLHALGSARTDPHLCDFLETHFLDEEVKLIKKMGDHLTNLHRLGGGSEFVDGGGSGTSANSFLEELRHSSLERECIEEICDFEEAKEIFQNVDDTLAFWSKHVLEHHHHHH
modifications: nanoparticle assembly; TFG nanoparticle
As for B2, the “inhibiting the growth of the tumor” value in test [1] is 96.2%. Further, in test [2], the “lymph node metastasis inhibition rate” value was determined as 76.9% and the “metastasis of the tumor into the lungs inhibited” value came out at 83.4%. In test [3], the survival proportion entry is recorded as “increased” and the “tumor growth inhibition effect” value was determined as 28.2%. This molecule also returned a metastasis inhibition rate in test [4] of 93.6%. In test [5], the “blood vessels covered with α-smooth muscle actin positive pericytes” value is on record as “increased”. In test [6], the “number of nodules with tumors decreased” value is given as 39.1% and the “sizes of the tumors decreased” value is recorded as 85%.
